Experimental data from patent US5273879, “Amplification method for polynucleotide assays” (Syntex (U.S.A.) Inc.).

Molecular target: Klenow fragment DNA polymerase (UniProt P00582 P00582:324-928)
Assay: primer extension, 7 mM MgCl2, 50 mM NaCl, 37 C
Conditions: tags: Pharmacia Lot NM 92818; label: 5'-32P on 17 mer
Description: The 120 mer (1 μg=25 pmoles) was incubated with a ten-fold molar excess (1.4 μg=250 pmoles) of 17 mer including all of the radioactively labeled 17 mer described above at 60° C. for 5 minutes and then slowly cooled over 30 minutes to 37° C. in a volume of 20.2 μl in 1.3×Klenow buffer (1×Klenow buffer is 7 mM Tris-HCl (pH 7.5), 7 mM MgCl_2, 50 mM NaCl). To this cooled reaction mix was added 2 μl of a solution of 0.4 mM dATP, dCTP, dGTP, dTTP (final conc.=32 μM of each dNTPs), 1.8 μl of 0.1M dithiothreitol (final conc.=[…]) and 7.2 units of Klenow polymerase (Pharmacia Lot #NM 92818) in a final concentration of 1×Klenow buffer. This reaction was incubated at 37° C. for 30 minutes. An additional 7.2 units of Klenow polymerase (1 μl volume) was added and the reaction was continued at 37° C. for one hour.
The reaction products were ethanol precipitated by the addition of 375 μl of 0.3M Na Acetate (pH 5.4) and 1.1 ml ethanol (−20° C.), followed by spinning at 15,000 g's for 30 minutes. The precipitated DNA was then resuspended in 25 μl of H_2O and reprecipitated with 1 ml of 100% ethanol (4° C.) and centrifugation as above. The supernatant was removed and the precipitated DNA pellet dried under vacuum.

Chain of Klenow fragment DNA polymerase (P00582 324-928, one chain of several): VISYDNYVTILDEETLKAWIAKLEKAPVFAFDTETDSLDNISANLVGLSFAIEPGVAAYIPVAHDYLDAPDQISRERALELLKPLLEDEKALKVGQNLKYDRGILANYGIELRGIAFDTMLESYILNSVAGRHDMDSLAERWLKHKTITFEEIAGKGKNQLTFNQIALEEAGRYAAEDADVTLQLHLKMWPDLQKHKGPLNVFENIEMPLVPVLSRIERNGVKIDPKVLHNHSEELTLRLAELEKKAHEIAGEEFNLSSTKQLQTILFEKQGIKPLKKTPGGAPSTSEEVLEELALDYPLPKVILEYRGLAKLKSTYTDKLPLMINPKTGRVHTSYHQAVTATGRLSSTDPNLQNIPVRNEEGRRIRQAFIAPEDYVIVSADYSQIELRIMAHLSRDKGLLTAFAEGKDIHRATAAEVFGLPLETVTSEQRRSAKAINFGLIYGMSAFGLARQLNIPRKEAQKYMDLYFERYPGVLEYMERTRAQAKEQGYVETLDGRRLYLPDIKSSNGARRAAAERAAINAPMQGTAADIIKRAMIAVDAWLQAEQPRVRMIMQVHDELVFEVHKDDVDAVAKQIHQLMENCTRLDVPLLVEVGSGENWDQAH

B1: 120 mer repeating template / 17 mer primer, extended (dsDNA)
DNA 1: CGGGGAATTCTTTAAATATTCCTTTAAACCTACCTTTAAACCTACCTTTAAACCTACCTTTAAACCTACCTTTAAACCTACCTTTAAACCTACCTTTAAATATTCCGAATTCACTGGCCG
DNA 2: CGGCCAGTGAATTCGGA
B1: binds.
